Read-outs that look alike come from different tables or passages of the source.
Tests used:
[1] = biological target: NiV (Bangladesh strain) L (full-length, with C-terminal triple strep tag) (Nipah virus (Bangladesh strain)) (UniProt Q997F0); assay: mass photometry
[2] = biological target: NiV (Bangladesh strain) L (full-length, with C-terminal triple strep tag) (Nipah virus (Bangladesh strain)) (UniProt Q997F0); assay: mass photometry; remark: listed apart in the source

## NiV (Bangladesh strain) P (full-length, with N-terminal polyhistidine tag) (from UniProt Q4VCQ1 1-709) (natural protein)
[1]
  stoichiometry N: 4
[2]
  stoichiometry N: 3
